{"source": "patent US20050164248A1", "about": "“Compositions isolated from bovine tissues and methods for their use” (priority 1999, published 2005)", "origin": "cited, not measured here", "molecules": {"B1": {"name": "Lactoferrin (protein, UniProt P02788 20-710, looked up)", "Lactotransferrin": "GRRRSVQWCAVSQPEATKCFQWQRNMRKVRGPPVSCIKRDSPIQCIQAIAENRADAVTLDGGFIYEAGLAPYKLRPVAAEVYGTERQPRTHYYAVAVVKKGGSFQLNELQGLKSCHTGLRRTAGWNVPIGTLRPFLNWTGPPEPIEAAVARFFSASCVPGADKGQFPNLCRLCAGTGENKCAFSSQEPYFSYSGAFKCLRDGAGDVAFIRESTVFEDLSDEAERDEYELLCPDNTRKPVDKFKDCHLARVPSHAVVARSVNGKEDAIWNLLRQAQEKFGKDKSPKFQLFGSPSGQKDLLFKDSAIGFSRVPPRIDSGLYLGSGYFTAIQNLRKSEEEVAARRARVVWCAVGEQELRKCNQWSGLSEGSVTCSSASTTEDCIALVLKGEADAMSLDGGYVYTAGKCGLVPVLAENYKSQQSSDPDPNCVDRPVEGYLAVAVVRRSDTSLTWNSVKGKKSCHTAVDRTAGWNIPMGLLFNQTGSCKFDEYFSQSCAPGSDPRSNLCALCIGDEQGENKCVPNSNERYYGYTGAFRCLAENAGDVAFVKDVTVLQNTDGNNNEAWAKDLKLADFALLCLDGKRKPVTEARSCHLAMAPNHAVVSRMDKVERLKQVLLHQQAKFGRNGSDCPDKFCLFQSETKNLLFNDNTECLARLHGKTTYEKYLGPQYVAGITNLKKCSTSPLLEACEFLRK"}}, "system": "Candida albicans", "settings": "general statement, no value"}
{"molecule": "B1", "values": [{"measurement": "inhibitory activity against Candida (statement on control peptide)", "value": "extremely inhibitory"}]}
